We go through 2 molecules from US20220324970A1 (Janssen / Centocor, published 2022).

Where two headings read alike, the source gives them in different places.

The target in assay [1] is T1, human pIgR extracellular domain 1-domain 2 (D1-D2) (human, UniProt P01833 19-240).
T1 construct: HIS-tagged construct made in HEK293 cells
Kind of assay: ECL (MSD) heat map, HIS-tagged construct captured via anti-HIS, anti-human-Fc detection.

The target of assay [2] is T2, human pIgR extracellular domain 2 (D2) (human, UniProt P01833 128-242).
T2 construct: HIS-tagged construct made in HEK293 cells; also called hpIgR domain 2
Described as above.

In assay [3] the target is T3, human pIgR extracellular domain 4-domain 5 (D4-D5) (human, UniProt P01833 350-565).
T3 construct: HIS-tagged construct made in HEK293 cells; also called hpIgR domains 4-5
T3 chain: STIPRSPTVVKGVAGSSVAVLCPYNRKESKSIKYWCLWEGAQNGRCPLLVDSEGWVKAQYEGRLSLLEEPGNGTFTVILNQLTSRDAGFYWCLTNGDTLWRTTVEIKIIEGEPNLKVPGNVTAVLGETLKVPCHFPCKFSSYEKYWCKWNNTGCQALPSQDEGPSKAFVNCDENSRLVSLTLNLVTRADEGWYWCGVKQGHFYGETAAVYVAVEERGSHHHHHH
The assay is described as above.

For assay [4], the target named is T4, human pIgR extracellular domain 1 (D1) (human, UniProt P01833 19-127).
T4 construct: HIS-tagged construct made in HEK293 cells; also called hpIgR domain-1
The assay is described as above.

Assay [5] concerns the target T5, human pIgR extracellular domain 5 (D5) (human, UniProt P01833 460-565).
T5 construct: HIS-tagged construct made in HEK293 cells; also called hpIgR domain 5
The assay is described as above.

Assay [6] has as its target T6, human pIgR extracellular domain (ECD) (human, UniProt P01833 19-638).
T6 construct: also called hpIgR ECD
Briefly: BLI; summary table, repeats Table 1.

The target in assay [7] is T7, human pIgR, full-length, on cells (human, UniProt P01833 19-764).
T7 construct: whole, on cells; Used for the flow cytometry EC50 values (MDCK-hpIgR) and for the transcytosis read-outs; also called hpIgR; cell-surface hpIgR
Kind of assay: flow cytometry on MDCK-hpIgR cells; summary table, repeats Table 1. (A flow cytometer gives signals particle by particle.)

In assay [8] the target is T7, human pIgR, full-length, on cells. The assay is described as above. The source holds these as a separate data set.
The target in another assay is T8, hpIgR_D2-D3.
T8 construct: HIS-tagged construct from HEK293 cells; also called human pIgR extracellular domain 2-domain 3 (D2-D3); hD2-D3
T8 HIS-tagged domain construct: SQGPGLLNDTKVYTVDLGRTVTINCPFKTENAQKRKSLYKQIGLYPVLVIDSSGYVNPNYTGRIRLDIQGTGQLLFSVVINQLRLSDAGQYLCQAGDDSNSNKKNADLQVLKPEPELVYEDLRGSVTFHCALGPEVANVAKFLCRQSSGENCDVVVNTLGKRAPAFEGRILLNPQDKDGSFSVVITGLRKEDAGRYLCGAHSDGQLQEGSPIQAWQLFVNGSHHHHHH
Briefly: ECL (MSD) heat map, HIS-tagged construct captured via anti-HIS, anti-human-Fc detection.

The target in assay [9] is T4, human pIgR extracellular domain 1 (D1). The description is as above. The source holds these as a separate data set.
Assay [10] has as its target T7, human pIgR, full-length, on cells. Briefly: flow cytometry on MDCK-hpIgR cells.
Assay [11] deals with T3, human pIgR extracellular domain …. Kind of assay: BLI (Octet RED384), 1:1 fit, 25 C, PBS; column kdis.
The target in assay [12] is T6, human pIgR extracellular domain (ECD). Described as above.
For assay [13] the target is unchanged. Kind of assay: BLI; summary table, repeats Table 1. This is another data set of the same source.
The target of assay [14] is T7, human pIgR, full-length, on cells. Briefly: cell-based or functional assay.
In assay [15] the target is T6, human pIgR extracellular domain (ECD). Briefly: BLI (Octet), VHH-mono-Fc and hpIgR ectodomain. In general terms: BLI is a label-free optical method that tracks binding on a fibre tip over time.
For assay [16] the target is unchanged. Briefly: ECL (MSD), anti-VHH detection against anti-Fc detection.
For assay [17], the target named is T2, human pIgR extracellular domain 2 (D2). Briefly: ECL (MSD) heat map, HIS-tagged construct captured via anti-HIS, anti-human-Fc detection. This is another data set of the same source.
A further assay has as its target T9, hpIgR_D3.
T9 construct: HIS-tagged construct from HEK293 cells; also called human pIgR extracellular domain 3 (D3); hD3
T9 HIS-tagged domain construct: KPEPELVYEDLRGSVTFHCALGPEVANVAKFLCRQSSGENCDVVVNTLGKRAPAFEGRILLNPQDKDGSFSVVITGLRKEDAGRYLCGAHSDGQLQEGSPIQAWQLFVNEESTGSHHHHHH
Described as above.

The target in assay [18] is T3, human pIgR extracellular domain …. Kind of assay: BLI (Octet RED384), 1:1 fit, 25 C, PBS.
The target in assay [19] is T6, human pIgR extracellular domain (ECD). Kind of assay: BLI (Octet RED384), 1:1 fit, 25 C, PBS.
Assay [20] has the same target. Kind of assay: ECL (MSD), hpIgR-ECD coated, anti-Fc detection.
Assay [21] concerns the target T7, human pIgR, full-length, on cells. Briefly: cell-based or functional assay. This is another data set of the same source.
The target of assay [22] is T6, human pIgR extracellular domain (ECD). Kind of assay: ECL (MSD), hpIgR-ECD coated, anti-VHH detection.
Assay [23] addresses T7, human pIgR, full-length, on cells. Briefly: cell-based or functional assay. The source holds these as a separate data set.

B1: VHH1 (Fc fusion)
VHH-linker-mono-Fc chain: QVQLVESGGGLVQAGGSLKLACAAPGLTFSSYRMGWFRQAPGQEREFVAAIDWNGRGTYYRYYADSVKGRSTISRDNAKNTMYLQMNSLKPEDTAVYYCAAGSIDLNWYGGMDYWGQGTQVTVSSEPKTPKPQPQPQLQPQPNPTTESKSPKSPAPELLGGPSVFLFPPKPKDTLMISRTPEVTCVVVDVSHEDPEVKFNWYVDGVEVHNAKTKPREEQYNSTYRVVSVLTVLHQDWLNGKEYKCKVSNKALPAPIEKTISKAKGQPREPQVYTKPPSREEMTKNQVSLSCLVKGFYPSDIAVEWESNGQPENNYKTTVPVLDSDGSFRLASYLTVDKSRWQQGNVFSCSVMHEALHNHYTQKSLSLSPGK
notes: Control VHH; also called mpIgR_011; VHH1-linker-mono-Fc protein
As for B1, the binding result in assay [1], in [2], in assay [3], in assay [4] and in [5] was “no binding (tested: 100 ug/ml (single concentration))” in each case.

B2: VHH12-linker-mono-Fc protein (Fc fusion)
chain: QVQLVETGGGLVQAGDSLRLSCAASGRTLSFNTYAMGWFRQAPGKEREFVASITWNGGSTSYADSVKGRFTITRDNAKNTATLRMNSLQPDDTAVYYCAAARYYVSGTYFPANYWGQGTQVTVSSEPKTPKPQPQPQLQPQPNPTTESKSPKSPAPELLGGPSVFLFPPKPKDTLMISRTPEVTCVVVDVSHEDPEVKFNWYVDGVEVHNAKTKPREEQYNSTYRVVSVLTVLHQDWLNGKEYKCKVSNKALPAPIEKTISKAKGQPREPQVYTKPPSREEMTKNQVSLSCLVKGFYPSDIAVEWESNGQPENNYKTTVPVLDSDGSFRLASYLTVDKSRWQQGNVFSCSVMHEALHNHYTQKSLSLSPGK
notes: made in CHO cells; also called VHH12-mono-Fc; hpIgR_266
B2: the Kd (usually the equilibrium constant for the complex coming apart) was 34 nM in [6]; 34 nM in assay [13]; 34 nM in [15]; 73.1 nM in assay [18]; 43.3 nM in assay [19]. In addition, the EC50 (commonly the concentration giving half of the maximal effect) in [7] came out at 4.6 nM; in assay [8] it was 4.6 nM; in assay [10], 4.6 nM; in assay [20] it was 0.5 nM; in assay [22], 0.2 nM. Also, the binding result (in assay [1]; with hpIgR_D2-D3; in assay [9]; in assay [17]; with hpIgR_D3) was “no binding (tested: 100 ug/ml (single concentration))” in each case. Also, the koff (as a rule, a measure of how fast the partners let go of each other) in [11] was 0.00281 s⁻¹; in [12], 0.00166 s⁻¹. The “Transcytosis (Fold Incr.)” value in assay [14] worked out at 38.6 fold. Further, in [16], the “Fold change in EC50” value turned out to be 0.4 fold. For the same molecule, the values for the kon in assay [18] and in assay [19] were 38500 M⁻¹ s⁻¹ and 38300 M⁻¹ s⁻¹, respectively. Also, in [21], the “For. Trans. (Fold Incr.)” value was found to be 29.5 fold. In assay [21], the “Rev. Trans (Fold Incr.)” value is 11.7 fold. For the same molecule, the “increase in their apical concentration relative to control VHH (MDCK-hpIgR monolayers)” value in assay [23] was above 10 fold.
